The text below walks through data of PMC5365662, “A Short Double-Stapled Peptide Inhibits Respiratory Syncytial Virus Entry and Spreading” (Antimicrobial Agents and Chemotherapy, 2017).

For orientation: Kd means the equilibrium constant for the complex coming apart.

Structures are written as SMILES. Bridge positions count the residues as written; N and C are the ends. Square brackets hold non-standard residues; d marks the D form. Peptide text beside a SMILES is read from it. R8 = C=CCCCCCC[C@@](C)(N)C(=O)O; R5 = C=CCCC[C@@](C)(N)C(=O)O; S5 = C=CCCC[C@](C)(N)C(=O)O Some results are limits rather than exact numbers.

A short description of data set [1]: circular dichroism. The note with it: 10 mM phosphate; pH 7.5; 25 °C; 50 uM. On the technique in general: Circular dichroism is widely used to follow secondary structure.
Data set [2] has as its target 5HB, a recombinant protein containing 3 HR1 domains covalently attached to 2 HR2 domains. The note with it: competition with fluorescently labeled T108 probe (2 nM), 5HB 50 nM, 10 min preincubation + 30 min room temperature, duplicates. The source says:
The RSV HR2 region (residues 476 to 524) is a 49-amino-acid sequence that has been extensively characterized (Fig. 1). HR2 is a largely unstructured peptide in aqueous solution folding into an α-helix upon binding to trimeric HR1 coiled coils ([20]). […] We reduced HR2 (aa 483 to 516) into three short overlapping subdomains (subdomains 1 to 3) (Fig. 1). These peptides were scanned for various stapling combinations. […] Far-UV circular dichroism (CD) spectropolarimetry was used to investigate the effect of stapling on the α-helical content of the peptides. […] To assess the propensity of the stapled peptides to hinder the formation of the postfusion six-helix bundle required for viral cell entry, we used a 5-helix bundle (5HB) biochemical fluorescence polarization (FP) competition assay as previously described ([21], [22]).
The coding sequence of 5HB was designed as described previously and de novo synthesized by Genscript ([21]). The HR1 (aa 126 to 182) and HR2 (aa 476 to 524) coding sequences from wild-type RSV A2 strain F ([36]) were codon optimized for overexpression in Escherichia coli and cloned at NdeI/BamHI restriction sites of pET-15b to generate the expression plasmid for 5HB. The 5HB expression construct was transformed into Escherichia coli BL21(DE3). Cells were grown at 37°C to an optical density at 600 nm of 0.8 followed by induction with isopropyl-1-thio-β-D-galactopyranoside at a final concentration of 0.5 mM for 12 to 15 h. Cells were harvested by centrifugation, washed twice with PBS, and resuspended in 20 ml of PBS (pH 7.4), 500 mM NaCl, and 1% Triton X-100 supplemented with complete protease inhibitor. Cell suspensions were disrupted by sonication. Cell debris was removed through ultracentrifugation at 18,000 × g for 1 h at 4°C, and clarified cell lysate was mixed with 1 ml of nickel-nitrilotriacetic acid (Ni-NTA) agarose beads (Qiagen) preequilibrated with 20 ml of lysis buffer. The suspension was agitated for 1 h at 4°C and loaded onto a 5-ml polypropylene column (Qiagen). The column was washed twice with 8 ml of PBS (pH 7.4), 500 mM NaCl, 1% Triton X-100, and 100 mM imidazole. Proteins were eluted with 5 × 500 μl of a buffer containing PBS (pH 7.4), 300 mM imidazole, and 500 mM NaCl. The imidazole was removed by dialysis, and protein purity was assessed by SDS-polyacrylamide gel electrophoresis followed by Coomassie blue staining. Protein concentration was determined with the Qubit 2.0 Fluorometer (Life Technologies).
The T108 ([12]) peptide probe was synthesized by standard SPPS procedures using HCTU as a coupling reagent as described above. A 10-μl volume of recombinant 5HB protein in FP buffer (20 mM PBS [pH 7.4], 500 mM NaCl, 0.01% [vol/vol] Tween 20, and 0.05 mg/ml bovine gamma globulin) was preincubated for 10 min at room temperature with 10 μl of the appropriate concentration of the inhibitor, after which 10 μl of fluorescein isothiocyanate (FITC)-T106 was added and further incubated for 30 min at room temperature. The final concentrations of protein and probe were 50 nM and 2 nM, respectively. The fluorescence polarization assay was performed in 384-well plates using a Spectramax Paradigm (Molecular Devices), using excitation and emission wavelengths of 485 nm and 535 nm, respectively. The acquisition time was 700 ms, and the read height was 1 mm. All experiments were performed in duplicate. […] In order to ensure robust fitting for some fits, r0 was kept constant at the value measured for the free tracer in buffer.

The compound `CC[C@H](C)[C@H](NC(=O)[C@H](Cc1ccccc1)NC(=O)[C@H](C)NC(=O)[C@H](CC(C)C)NC(=O)[C@H](CO)NC(=O)[C@H](CCC(N)=O)NC(=O)[C@H](CC(N)=O)NC(=O)[C@@H](NC(=O)[C@]1(C)CCCC=CCCC[C@](C)(NC(=O)[C@H](CO)NC(=O)[C@@H](NC(=O)[C@H](CCC(=O)O)NC(C)=O)[C@@H](C)CC)C(=O)N[C@@H](C(C)C)C(=O)N[C@@H](CC(N)=O)C(=O)N[C@@H](CCC(=O)O)C(=O)N1)[C@@H](C)CC)C(=O)N[C@@H](CCCNC(=N)N)C(N)=O` [Peptide 2a] (Ac-EIS[S5]VNE[S5]INQSLAFIR-NH2; staple 4-8) showed a helicity in data set [1] of 5.2%. Moreover, the Kd in data set [2] amounted to 405 ± 121 µM.
For `CC[C@H](C)[C@H](NC(=O)[C@H](Cc1ccccc1)NC(=O)[C@]1(C)CCCC=CCCC[C@](C)(NC(=O)[C@@H](NC(=O)[C@H](CCCCN)NC(=O)[C@H](CCC(=O)O)NC(=O)[C@H](CC(N)=O)NC(=O)[C@@H](NC(=O)[C@H](CCC(N)=O)NC(=O)[C@H](CO)NC(=O)[C@@H](NC(=O)[C@H](CCC(=O)O)NC(C)=O)[C@@H](C)CC)C(C)C)[C@@H](C)CC)C(=O)N[C@@H](CCC(N)=O)C(=O)N[C@@H](CO)C(=O)N[C@@H](CC(C)C)C(=O)N1)C(=O)N[C@@H](CCCNC(=N)N)C(N)=O` [Peptide 2b] (Ac-EISQVNEKI[S5]QSL[S5]FIR-NH2; staple 10-14), the helicity in data set [1] is 35.8%. Moreover, in data set [2], the dissociation constant Kd came to 369 ± 99 µM.
Take `CC[C@H](C)[C@H](NC(=O)[C@H](Cc1ccccc1)NC(=O)[C@H](C)NC(=O)[C@H](CC(C)C)NC(=O)[C@H](CO)NC(=O)[C@]1(C)CCCC=CCCC[C@@](C)(NC(=O)[C@H](CCC(=O)O)NC(=O)[C@H](CC(N)=O)NC(=O)[C@@H](NC(=O)[C@H](CCC(N)=O)NC(=O)[C@H](CO)NC(=O)[C@@H](NC(=O)[C@H](CCC(=O)O)NC(C)=O)[C@@H](C)CC)C(C)C)C(=O)N[C@@H]([C@@H](C)CC)C(=O)N[C@@H](CC(N)=O)C(=O)N1)C(=O)N[C@@H](CCCNC(=N)N)C(N)=O` [Peptide 2c] (Ac-EISQVNE[R5]IN[S5]SLAFIR-NH2; staple 8-11): in data set [1], the helicity is 13.8%. The equilibrium dissociation constant (Kd) in data set [2] turned out to be 125 ± 16 µM.
The matching figures for `CC[C@H](C)[C@H](NC(=O)[C@H](Cc1ccccc1)NC(=O)[C@]1(C)CCCC=CCCCCCC[C@@](C)(NC(=O)[C@H](CC(N)=O)NC(=O)[C@@H](NC(=O)[C@H](CCC(N)=O)NC(=O)[C@H](CO)NC(=O)[C@@H](NC(=O)[C@H](CCC(=O)O)NC(C)=O)[C@@H](C)CC)C(C)C)C(=O)N[C@@H](CCCCN)C(=O)N[C@@H]([C@@H](C)CC)C(=O)N[C@@H](CC(N)=O)C(=O)N[C@@H](CCC(N)=O)C(=O)N[C@@H](CO)C(=O)N[C@@H](CC(C)C)C(=O)N1)C(=O)N[C@@H](CCCNC(=N)N)C(N)=O` [Peptide 2e] (Ac-EISQVN[R8]KINQSL[S5]FIR-NH2; staple 7-14): 27.4% and 76 ± 4 µM.
In the case of `CC[C@H](C)[C@H](NC(=O)[C@H](CCC(=O)O)NC(C)=O)C(=O)N[C@@H](CO)C(=O)N[C@@H](CCC(N)=O)C(=O)N[C@H](C(=O)N[C@@H](CC(N)=O)C(=O)N[C@@H](CCC(=O)O)C(=O)N[C@@H](CCCCN)C(=O)N[C@H](C(=O)N[C@]1(C)CCCCCCC=CCCC[C@@](C)(C(N)=O)NC(=O)[C@H]([C@@H](C)CC)NC(=O)[C@H](Cc2ccccc2)NC(=O)[C@H](C)NC(=O)[C@H](CC(C)C)NC(=O)[C@H](CO)NC(=O)[C@H](CCC(N)=O)NC1=O)[C@@H](C)CC)C(C)C` [Peptide 2f] (Ac-EISQVNEKI[R8]QSLAFI[S5]-NH2; staple 10-17), the helicity in data set [1] is 15.7%. Further, in data set [2], the Kd was determined as 363 ± 238 µM.
Compound `CC[C@H](C)[C@H](NC(=O)[C@H](Cc1ccccc1)NC(=O)[C@H](C)NC(=O)[C@H](CC(C)C)NC(=O)[C@H](CO)NC(=O)[C@H](CCC(N)=O)NC(=O)[C@H](CCC(=O)O)NC(C)=O)C(=O)N[C@@H](CCCNC(=N)N)C(=O)N[C@@H](CCCCN)C(=O)N[C@@H](CO)C(=O)N[C@@H](CC(=O)O)C(=O)N[C@@H](CCC(=O)O)C(=O)N[C@@H](CC(C)C)C(=O)N[C@@H](CC(C)C)C(=O)N[C@@H](Cc1c[nH]cn1)C(=O)N[C@@H](CC(N)=O)C(=O)N[C@H](C(N)=O)C(C)C` [Peptide 3] (Ac-EQSLAFIRKSDELLHNV-NH2) gave a helicity in data set [1] of 5.9%. Moreover, the Kd in data set [2] is over 10.8 µM.
The like results for `CC[C@H](C)[C@H](NC(=O)[C@H](Cc1ccccc1)NC(=O)[C@H](C)NC(=O)[C@H](CC(C)C)NC(=O)[C@H](CO)NC(=O)[C@H](CCC(N)=O)NC(=O)[C@H](CCC(=O)O)NC(C)=O)C(=O)N[C@@]1(C)CCCC=CCCC[C@@](C)(C(=O)N[C@@H](CC(C)C)C(=O)N[C@@H](CC(C)C)C(=O)N[C@@H](Cc2c[nH]cn2)C(=O)N[C@@H](CC(N)=O)C(=O)N[C@H](C(N)=O)C(C)C)NC(=O)[C@H](CC(=O)O)NC(=O)[C@H](CO)NC(=O)[C@H](CCCCN)NC1=O` [Peptide 3b] (Ac-EQSLAFI[S5]KSD[S5]LLHNV-NH2; staple 8-12) were, in that order, 23% and 55.9 ± 4 µM.
Regarding `CC[C@H](C)[C@H](NC(=O)[C@H](Cc1ccccc1)NC(=O)[C@H](C)NC(=O)[C@H](CC(C)C)NC(=O)[C@H](CO)NC(=O)[C@H](CCC(N)=O)NC(=O)[C@H](CCC(=O)O)NC(C)=O)C(=O)N[C@@H](CCCNC(=N)N)C(=O)N[C@@H](CCCCN)C(=O)N[C@@H](CO)C(=O)N[C@@H](CC(=O)O)C(=O)N[C@@]1(C)CCCC=CCCC[C@@](C)(C(=O)N[C@H](C(N)=O)C(C)C)NC(=O)[C@H](Cc2c[nH]cn2)NC(=O)[C@H](CC(C)C)NC(=O)[C@H](CC(C)C)NC1=O` [Peptide 3c] (Ac-EQSLAFIRKSD[S5]LLH[S5]V-NH2; staple 12-16), the helicity in data set [1] was found to be 18.7%. Besides, in data set [2], the Kd is over 216 µM.
In data set [1], `CC[C@H](C)[C@@H]1NC(=O)[C@H](Cc2ccccc2)NC(=O)[C@](C)(NC(=O)[C@H](CC(C)C)NC(=O)[C@H](CO)NC(=O)[C@H](CCC(N)=O)NC(=O)[C@H](CCC(=O)O)NC(C)=O)CCCCCCC=CCCC[C@@](C)(C(=O)N[C@@H](CC(C)C)C(=O)N[C@@H](CC(C)C)C(=O)N[C@@H](Cc2c[nH]cn2)C(=O)N[C@@H](CC(N)=O)C(=O)N[C@H](C(N)=O)C(C)C)NC(=O)[C@H](CC(=O)O)NC(=O)[C@H](CO)NC(=O)[C@H](CCCCN)NC(=O)[C@H](CCCNC(=N)N)NC1=O` [Peptide 3e] (Ac-EQSL[R8]FIRKSD[S5]LLHNV-NH2; staple 5-12) showed a helicity of 17.5%. Also, the Kd in data set [2] amounted to 71 ± 34 µM.
